Assay results from publication PMC4288360.

Target: T1, Recombinant mouse BMP-9 (bone morphogenetic protein 9) (mouse) (UniProt Q9WV56)
T1 sequence: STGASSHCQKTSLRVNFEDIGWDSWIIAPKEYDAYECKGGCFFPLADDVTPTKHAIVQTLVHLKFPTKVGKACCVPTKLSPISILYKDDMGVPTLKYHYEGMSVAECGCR

inhibition of BMP-9 (50 ng/ml)-induced alkaline phosphatase activity in murine VSMCs by ALK1-Fc (250 ng/ml and 1 μg/ml; value at 1 μg/ml), 4 days; blocks BMP-9 acting on ALK1 of the cells: 33%
B1: Activin receptor-like kinase-1 fusion protein (ALK1-Fc) (Fc fusion)
chain: DLAKPSKLVNCTCESPHCKRPFCQGSWCTVVLVREQGRHPQVYRGCGSLNQELCLGRPTEFLNHHCCYRSFCNHNVSLMLEATQTPSEEPEVDAHLP
